Results taken from patent publication US20140348865A1, “[…] ON AN HIV-1 V1V2 SITE-OF-VULNERABILITY” (The United States of America, as represented by the …, priority 2011, published 2014).

Legend:
[1] = biological target: Env of HIV-1 strain 6471 (pseudovirus) (HIV-1)
[2] = biological target: 6644.V2.C33 (HIV-1)
[3] = biological target: TZA125.17 (HIV-1)
[4] = biological target: 6785.V5.C14 (HIV-1)
[5] = biological target: Env of HIV-1 strain 6631 (pseudovirus) (HIV-1)
[6] = biological target: 3168.V4.C10 (HIV-1)
[7] = biological target: ZM109.4 (HIV-1)
[8] = biological target: CNE7 (HIV-1)
[9] = biological target: CNE40 (HIV-1)
[10] = biological target: DU156.12 (HIV-1)
[11] = biological target: 0077_V1_C16 (HIV-1)
[12] = biological target: ZM146.7 (HIV-1)
[13] = biological target: CAP210.E8 (HIV-1)
[14] = biological target: CNE53 (HIV-1)
[15] = biological target: SO18.18 (HIV-1)
[16] = biological target: 96ZM651_02 (HIV-1)
[17] = biological target: ZM215.8 (HIV-1)
[18] = biological target: CAP45.G3 (HIV-1)
[19] = biological target: CNE31 (HIV-1)
[20] = biological target: MW965.26 (HIV-1)
[21] = biological target: 3637.V5.C3 (HIV-1)
[22] = biological target: TZBD.02 (HIV-1)
[23] = biological target: CH181.12 (HIV-1)
[24] = biological target: ZM176.66 (HIV-1)
[25] = biological target: DU123.06 (HIV-1)
[26] = biological target: ZM197.7 (HIV-1)
[27] = biological target: Env of HIV-1 strain 6322 (pseudovirus) (HIV-1)
[28] = biological target: DU151.02 (HIV-1)
[29] = biological target: TV1.29 (HIV-1)
[30] = biological target: DU422.01 (HIV-1)
[31] = biological target: ZM106.9 (HIV-1)
[32] = biological target: ZM214.15 (HIV-1)
[33] = biological target: Env of HIV-1 strain ZM135 (pseudovirus) (HIV-1)
[34] = biological target: Env of HIV-1 strain CNE30 (pseudovirus) (HIV-1)
[35] = biological target: CNE58 (HIV-1)
[36] = biological target: CAP244.D3 (HIV-1)
[37] = biological target: DU172.17 (HIV-1)
[38] = biological target: SC422.8
[39] = biological target: HO86.8
[40] = biological target: T278-50
[41] = biological target: T266-60
[42] = biological target: T255-34
[43] = biological target: Env of HIV-1 strain T251-18 (pseudovirus) (HIV-1)
[44] = biological target: SF162.LS
[45] = biological target: PVO.04
[46] = biological target: HT593.1
[47] = biological target: T33-7
[48] = biological target: CNE14
[49] = biological target: QH0692.42 (pseudovirus)
[50] = biological target: T250-4
[51] = biological target: Env of HIV-1 strain BG 1168 (pseudovirus) (HIV-1)
[52] = biological target: T257-31
[53] = biological target: THRO.18
[54] = biological target: Bal.01
[55] = biological target: MN.3
[56] = biological target: T280-5
[57] = biological target: T253-11
[58] = biological target: BX08_16
[59] = biological target: BR07.DG
[60] = biological target: BaL.26
[61] = biological target: CNE12
[62] = biological target: AC10.29
[63] = biological target: HXB2.DG
[64] = biological target: Env of HIV-1 strain CNE4 (pseudovirus) (HIV-1)
[65] = biological target: WITO.33
[66] = biological target: YU2.DG
[67] = biological target: REJO.67

Work on monoclonal antibody PG9 yielded a neutralization IC80 [1] greater than 50 µg/mL, a neutralization IC80 [2] of 0.12 µg/mL and a neutralization IC80 [3] of 1.21 µg/mL. For the same substance, the neutralization IC80 [4] was 0.094 µg/mL, the neutralization IC80 [5] was greater than 50 µg/mL and the neutralization IC80 [6] was 0.657 µg/mL. It also gave a neutralization IC80 [7] of 2.64 µg/mL, a neutralization IC80 [8] of 4.5 µg/mL and a neutralization IC80 [9] of 20 µg/mL. The neutralization IC80 [10] was 0.143 µg/mL, the neutralization IC80 [11] was 0.343 µg/mL and the neutralization IC80 [12] was 6.78 µg/mL. The neutralization IC80 [13] was 0.501 µg/mL, the neutralization IC80 [14] was 0.809 µg/mL and the neutralization IC80 [15] was 0.227 µg/mL. It also gave a neutralization IC80 [16] greater than 50 µg/mL, a neutralization IC80 [17] of 0.228 µg/mL and a neutralization IC80 [18] of less than 0.023 µg/mL. For the same substance, the neutralization IC80 [19] was greater than 50 µg/mL, the neutralization IC80 [20] was 49.9 µg/mL and the neutralization IC80 [21] was greater than 50 µg/mL. It also gave a neutralization IC80 [22] of 1.3 µg/mL, a neutralization IC80 [23] of 0.04 µg/mL and a neutralization IC80 [24] of 0.05 µg/mL. The neutralization IC80 [25] was 0.477 µg/mL, the neutralization IC80 [26] was 1.92 µg/mL and the neutralization IC80 [27] was greater than 50 µg/mL. It also gave a neutralization IC80 [28] of 0.057 µg/mL, a neutralization IC80 [29] of 0.044 µg/mL and a neutralization IC80 [30] of 15.8 µg/mL. It also gave a neutralization IC80 [31] of 6.58 µg/mL, a neutralization IC80 [32] greater than 50 µg/mL and a neutralization IC80 [33] greater than 50 µg/mL. For the same substance, the neutralization IC80 [34] was greater than 50 µg/mL, the neutralization IC80 [35] was 0.068 µg/mL and the neutralization IC80 [36] was 0.362 µg/mL. For the same substance, the neutralization IC80 [37] was 0.899 µg/mL, the neutralization IC50 [38] was 0.535 µg/mL and the neutralization IC50 [39] was 0.014 µg/mL. It also gave a neutralization IC50 [40] of 0.913 µg/mL, a neutralization IC50 [41] of 24 µg/mL and a neutralization IC50 [42] of 0.015 µg/mL. The neutralization IC50 [43] was greater than 50 µg/mL, the neutralization IC50 [44] was greater than 50 µg/mL and the neutralization IC50 [45] was 6.24 µg/mL. For the same substance, the neutralization IC50 [46] was 0.271 µg/mL, the neutralization IC50 [47] was less than 0.023 µg/mL and the neutralization IC50 [48] was greater than 50 µg/mL. For the same substance, the neutralization IC50 [49] was greater than 50 µg/mL, the neutralization IC50 [50] was less than 0.0006 µg/mL and the neutralization IC50 [51] was greater than 50 µg/mL. For the same substance, the neutralization IC50 [52] was 0.02 µg/mL, the neutralization IC50 [53] was 15 µg/mL and the neutralization IC50 [54] was 0.052 µg/mL. It also gave a neutralization IC50 [55] greater than 50 µg/mL, a neutralization IC50 [56] of 0.379 µg/mL and a neutralization IC50 [57] of 0.127 µg/mL. For the same substance, the neutralization IC50 [58] was 0.024 µg/mL, the neutralization IC50 [59] was greater than 50 µg/mL and the neutralization IC50 [60] was 0.034 µg/mL. The neutralization IC50 [61] was greater than 50 µg/mL, the neutralization IC50 [62] was 0.078 µg/mL and the neutralization IC50 [63] was 0.553 µg/mL. The neutralization IC50 [64] was greater than 50 µg/mL, the neutralization IC50 [65] was less than 0.023 µg/mL and the neutralization IC50 [66] was 3.69 µg/mL. The neutralization IC50 [67] was 0.005 µg/mL.
In the case of monoclonal antibody PG16, the neutralization IC80 [1] is reported as greater than 50 µg/mL, the neutralization IC80 [2] is reported as greater than 50 µg/mL and the neutralization IC80 [3] is reported as 0.719 µg/mL. It also gave a neutralization IC80 [4] of less than 0.023 µg/mL, a neutralization IC80 [5] greater than 50 µg/mL and a neutralization IC80 [6] of 0.515 µg/mL. It also gave a neutralization IC80 [7] greater than 50 µg/mL, a neutralization IC80 [8] of 1.91 µg/mL and a neutralization IC80 [9] greater than 50 µg/mL. The neutralization IC80 [10] was less than 0.023 µg/mL, the neutralization IC80 [11] was 0.075 µg/mL and the neutralization IC80 [12] was greater than 50 µg/mL. For the same substance, the neutralization IC80 [13] was 0.882 µg/mL, the neutralization IC80 [14] was greater than 50 µg/mL and the neutralization IC80 [15] was 0.136 µg/mL. It also gave a neutralization IC80 [16] greater than 50 µg/mL, a neutralization IC80 [17] greater than 50 µg/mL and a neutralization IC80 [18] of less than 0.023 µg/mL. The neutralization IC80 [19] was greater than 50 µg/mL, the neutralization IC80 [20] was greater than 50 µg/mL and the neutralization IC80 [21] was greater than 50 µg/mL. It also gave a neutralization IC80 [22] of 0.175 µg/mL, a neutralization IC80 [23] of 0.01 µg/mL and a neutralization IC80 [24] of 0.01 µg/mL. It also gave a neutralization IC80 [25] of 0.163 µg/mL, a neutralization IC80 [26] of 6.67 µg/mL and a neutralization IC80 [27] greater than 50 µg/mL. For the same substance, the neutralization IC80 [28] was less than 0.023 µg/mL, the neutralization IC80 [29] was 0.15 µg/mL and the neutralization IC80 [30] was 49.9 µg/mL. It also gave a neutralization IC80 [31] greater than 50 µg/mL, a neutralization IC80 [32] greater than 50 µg/mL and a neutralization IC80 [33] greater than 50 µg/mL. For the same substance, the neutralization IC80 [34] was greater than 50 µg/mL, the neutralization IC80 [35] was less than 0.023 µg/mL and the neutralization IC80 [36] was 0.058 µg/mL. For the same substance, the neutralization IC80 [37] was 0.134 µg/mL, the neutralization IC50 [38] was 1.2 µg/mL and the neutralization IC50 [39] was 0.001 µg/mL. For the same substance, the neutralization IC50 [40] was 1.13 µg/mL, the neutralization IC50 [41] was greater than 50 µg/mL and the neutralization IC50 [42] was 0.005 µg/mL. The neutralization IC50 [43] was 10.5 µg/mL, the neutralization IC50 [44] was greater than 50 µg/mL and the neutralization IC50 [45] was 19.8 µg/mL. For the same substance, the neutralization IC50 [46] was 0.153 µg/mL, the neutralization IC50 [47] was less than 0.023 µg/mL and the neutralization IC50 [48] was greater than 50 µg/mL. For the same substance, the neutralization IC50 [49] was greater than 50 µg/mL, the neutralization IC50 [50] was less than 0.0006 µg/mL and the neutralization IC50 [51] was greater than 50 µg/mL. For the same substance, the neutralization IC50 [52] was 0.003 µg/mL, the neutralization IC50 [53] was 0.975 µg/mL and the neutralization IC50 [54] was 8 µg/mL. It also gave a neutralization IC50 [55] greater than 50 µg/mL, a neutralization IC50 [56] of 0.233 µg/mL and a neutralization IC50 [57] of 4.44 µg/mL. It also gave a neutralization IC50 [58] of 0.062 µg/mL, a neutralization IC50 [59] greater than 50 µg/mL and a neutralization IC50 [60] of 0.136 µg/mL. It also gave a neutralization IC50 [61] greater than 50 µg/mL, a neutralization IC50 [62] of less than 0.023 µg/mL and a neutralization IC50 [63] greater than 50 µg/mL. The neutralization IC50 [64] was greater than 50 µg/mL, the neutralization IC50 [65] was less than 0.023 µg/mL and the neutralization IC50 [66] was 0.041 µg/mL. It also gave a neutralization IC50 [67] of 0.005 µg/mL.
